Measurements as given in patent publication US9260500B2, “Peptide and use thereof” (Takeda Pharmaceutical Company Limited, priority 2009, dated 2016).
Non-standard residues stand in square brackets, D forms with d. No end group written: not given here. tBuAla = CC(C)(C)C[C@H](N)C(=O)O; 4Pal = N[C@@H](Cc1ccncc1)C(=O)O; d(pGlu) = O=C1CC[C@H](C(=O)O)N1; Cha = N[C@@H](CC1CCCCC1)C(=O)O; Gly(N-CH2CH2OH) = O=C(O)CNCCO; NMeA = CN[C@@H](C)C(=O)O; Abu = CC[C@H](N)C(=O)O; Nleu = CC(C)CNCC(=O)O; Aib = CC(C)(N)C(=O)O; Aoc = NCCCCCCCC(=O)O; βAla = NCCC(=O)O

Key:
male C57EL/6J mice = experiment: 3-Days Continuous Subcutaneous Administration Test-1 (food intake suppressing activity); assay type: in vivo, mouse; settings: 0.03 mg/kg/day, subcutaneous Alzet pump, food consumption over 3 days; relative to food intake suppression rate for PYY(3-36) (1 mg/kg/day) taken as 100%
Experimental: (4) Test Method: 3-Days Continuous Subcutaneous Administration Test-1
The food intake suppressing activity of the compound of the present invention was examined by the method described below.
The test compound was dissolved in 50% DMSO so that sustained release would occur at 0.03 mg/kg/day, and the solution was filled in the Alzet Pump (Alzet model: 1003D, sustained release rate: 1 μL/hr, capacity: 100 μL). After the filling, the pump was placed in a 2 mL Eppendorf tube containing 330 μL of physiological saline, and incubated at 37° C. for 2 hours or more. Thereafter, this pump was subcutaneously embedded in the back of each mouse by the method described below. After weighing, each male […] mice at 12-13 weeks of age (25° C., allowed to take food and water ad libitum; 12-hour bright-12-hour dark cycle, lighting turned on at 08:00) was anesthetized with diethyl ether; the skin in the upper back thereof was incised, and the above-mentioned pump was embedded subcutaneously. Thereafter, several drops of penicillin solution (100000 units/mL) were added to the incised part, and the incision was sutured using Michel's surgical needle. This mouse was returned to the rearing cage (reared alone), and given previously weighed food; 3 days later, the amount of remaining food was measured. Food consumption was calculated by subtracting the amount of remaining food after 3 days from the weight of the food given on the day of pump embedding. The food intake suppressing activity of each test compound was expressed as a food intake suppression rate (%) relative to the food intake suppression rate for PYY(3-36) (1 mg/kg/day) taken as 100%.

human Y2 receptor [1] = biological target: T1, human Y2 receptor (Homo sapiens, UniProt P49146); experiment: Human Y2 Receptor G Protein Binding Assay (GBA), [35S]GTPγS; assay type: biochemical; settings: EC50 of test compound/EC50 of PYY(3-36) (PYY3-36 taken as 1), hY2R/CHO membrane fraction
T1 construct: expressed in transfected cells; membrane fraction
T1 sequence (P49146 1-381): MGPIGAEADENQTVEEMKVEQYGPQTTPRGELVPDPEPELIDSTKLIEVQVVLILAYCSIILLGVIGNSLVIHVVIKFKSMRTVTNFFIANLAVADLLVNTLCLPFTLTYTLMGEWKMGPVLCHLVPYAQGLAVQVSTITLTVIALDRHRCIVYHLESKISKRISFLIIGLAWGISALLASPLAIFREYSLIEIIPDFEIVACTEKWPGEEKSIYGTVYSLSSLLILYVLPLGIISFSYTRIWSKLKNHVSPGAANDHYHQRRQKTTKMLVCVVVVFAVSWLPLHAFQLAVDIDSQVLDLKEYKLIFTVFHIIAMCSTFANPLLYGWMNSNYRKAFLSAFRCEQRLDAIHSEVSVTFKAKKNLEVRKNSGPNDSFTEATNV
Method in brief: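 Agonism measured as [35S]GTPγS binding, read by GF/C filtration and scintillation counting after 120 min at room temperature, using human Y2 membranes at 1 μg protein/mL in pH 7.4 Tris/MgCl2/NaCl/GDP buffer. Compound serially diluted 100 μM–1 nM; EC50 normalized to PYY(3-36) (ratio = compound/PYY).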

human Y2 receptor [2] = biological target: T1, human Y2 receptor; experiment: Receptor Binding Assay (RBA) for Human Y2, [125I]-PYY displacement on hY2R/CHO membrane fraction; settings: IC50 of test compound/IC50 of PYY(3-36) (PYY(3-36) taken as 1)
Method in brief: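 hY2R stably expressed in CHO/dhfr− cells; membrane fraction prepared from cells disrupted in 10 mM NaHCO3, 5 mM EDTA buffer with protease inhibitors. Binding read as displacement of [125I]-PYY.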

Row | Substance | GBA EC50 Ratio (human Y2 receptor [1]) | RBA IC50 Ratio (human Y2 receptor [2]) | food intake suppression rate (%) (male C57EL/6J mice)
1 | Ac-[D-Pro24, Cha27,36, Leu(Me)28, Lys30, Aib31]-PYY(23-36) (Ac-S[dP]RH[Cha][tBuAla]NK[Aib]TRQR[Cha]-NH2; SMILES CC(=O)N[C@@H](CO)C(=O)N1CCC[C@@H]1C(=O)N[C@@H](CCCNC(=N)N)C(=O)N[C@@H](Cc1c[nH]cn1)C(=O)N[C@@H](CC1CCCCC1)C(=O)N[C@@H](CC(C)(C)C)C(=O)N[C@@H](CC(N)=O)C(=O)N[C@@H](CCCCN)C(=O)NC(C)(C)C(=O)N[C@H](C(=O)N[C@@H](CCCNC(=N)N)C(=O)N[C@@H](CCC(N)=O)C(=O)N[C@@H](CCCNC(=N)N)C(=O)N[C@@H](CC1CCCCC1)C(N)=O)[C@@H](C)O) [compound No. 136] | – | – | 10%
2 | Ac-[D-Pro24, Phe26, Cha27,36, Aib28,31, Lys30]-PYY(23-36) (Ac-S[dP]RF[Cha][Aib]NK[Aib]TRQR[Cha]-NH2; SMILES CC(=O)N[C@@H](CO)C(=O)N1CCC[C@@H]1C(=O)N[C@@H](CCCNC(=N)N)C(=O)N[C@@H](Cc1ccccc1)C(=O)N[C@@H](CC1CCCCC1)C(=O)NC(C)(C)C(=O)N[C@@H](CC(N)=O)C(=O)N[C@@H](CCCCN)C(=O)NC(C)(C)C(=O)N[C@H](C(=O)N[C@@H](CCCNC(=N)N)C(=O)N[C@@H](CCC(N)=O)C(=O)N[C@@H](CCCNC(=N)N)C(=O)N[C@@H](CC1CCCCC1)C(N)=O)[C@@H](C)O) [compound No. 345] | – | – | 10%
3 | Ac-[Glu23, D-Pro24, Cha27,28,36, Lys30, Aib31]-PYY(23-36) (Ac-E[dP]RH[Cha][Cha]NK[Aib]TRQR[Cha]-NH2; SMILES CC(=O)N[C@@H](CCC(=O)O)C(=O)N1CCC[C@@H]1C(=O)N[C@@H](CCCNC(=N)N)C(=O)N[C@@H](Cc1c[nH]cn1)C(=O)N[C@@H](CC1CCCCC1)C(=O)N[C@@H](CC1CCCCC1)C(=O)N[C@@H](CC(N)=O)C(=O)N[C@@H](CCCCN)C(=O)NC(C)(C)C(=O)N[C@H](C(=O)N[C@@H](CCCNC(=N)N)C(=O)N[C@@H](CCC(N)=O)C(=O)N[C@@H](CCCNC(=N)N)C(=O)N[C@@H](CC1CCCCC1)C(N)=O)[C@@H](C)O) [compound No. 137] | – | – | 25%
4 | [Aoc(8)23, D-Pro24, Cha27,28,36, Aib31]-PYY(23-36) ([Aoc][dP]RH[Cha][Cha]NL[Aib]TRQR[Cha]-NH2; N-terminus assumed; SMILES CC(C)C[C@H](NC(=O)[C@H](CC(N)=O)NC(=O)[C@H](CC1CCCCC1)NC(=O)[C@H](CC1CCCCC1)NC(=O)[C@H](Cc1c[nH]cn1)NC(=O)[C@H](CCCNC(=N)N)NC(=O)[C@H]1CCCN1C(=O)CCCCCCCN)C(=O)NC(C)(C)C(=O)N[C@H](C(=O)N[C@@H](CCCNC(=N)N)C(=O)N[C@@H](CCC(N)=O)C(=O)N[C@@H](CCCNC(=N)N)C(=O)N[C@@H](CC1CCCCC1)C(N)=O)[C@@H](C)O) [compound No. 117] | 1.9 | 2.1 | –
5 | [D-Ser23, Abu26, Cha27,28,36, Aib31]-PYY(23-36) ([dS]LR[Abu][Cha][Cha]NL[Aib]TRQR[Cha]-NH2; N-terminus assumed; SMILES CC[C@H](NC(=O)[C@H](CCCNC(=N)N)NC(=O)[C@H](CC(C)C)NC(=O)[C@H](N)CO)C(=O)N[C@@H](CC1CCCCC1)C(=O)N[C@@H](CC1CCCCC1)C(=O)N[C@@H](CC(N)=O)C(=O)N[C@@H](CC(C)C)C(=O)NC(C)(C)C(=O)N[C@H](C(=O)N[C@@H](CCCNC(=N)N)C(=O)N[C@@H](CCC(N)=O)C(=O)N[C@@H](CCCNC(=N)N)C(=O)N[C@@H](CC1CCCCC1)C(N)=O)[C@@H](C)O) [compound No. 85] | 11 | 15 | –
6 | [D-pGlu24, Pya(4)26, Cha27,36, Aib28,31, Lys30]-PYY(24-36) ([d(pGlu)]R[4Pal][Cha][Aib]NK[Aib]TRQR[Cha]-NH2; SMILES C[C@@H](O)[C@H](NC(=O)C(C)(C)NC(=O)[C@H](CCCCN)NC(=O)[C@H](CC(N)=O)NC(=O)C(C)(C)NC(=O)[C@H](CC1CCCCC1)NC(=O)[C@H](Cc1ccncc1)NC(=O)[C@H](CCCNC(=N)N)NC(=O)[C@H]1CCC(=O)N1)C(=O)N[C@@H](CCCNC(=N)N)C(=O)N[C@@H](CCC(N)=O)C(=O)N[C@@H](CCCNC(=N)N)C(=O)N[C@@H](CC1CCCCC1)C(N)=O) [compound No. 250] | 1.1 | 2 | –
7 | [Lys(Ac)23, D-Pro24, Cha27,28,36, Aib31]-PYY(23-36) (K(Ac)[dP]RH[Cha][Cha]NL[Aib]TRQR[Cha]-NH2; N-terminus assumed; SMILES CC(=O)NCCCC[C@H](N)C(=O)N1CCC[C@@H]1C(=O)N[C@@H](CCCNC(=N)N)C(=O)N[C@@H](Cc1c[nH]cn1)C(=O)N[C@@H](CC1CCCCC1)C(=O)N[C@@H](CC1CCCCC1)C(=O)N[C@@H](CC(N)=O)C(=O)N[C@@H](CC(C)C)C(=O)NC(C)(C)C(=O)N[C@H](C(=O)N[C@@H](CCCNC(=N)N)C(=O)N[C@@H](CCC(N)=O)C(=O)N[C@@H](CCCNC(=N)N)C(=O)N[C@@H](CC1CCCCC1)C(N)=O)[C@@H](C)O) [compound No. 163] | 2.5 | 5.4 | –
8 | [MeAla22, D-Pro24, Cha27,28,36, Aib31]-PYY(22-36) ([NMeA]S[dP]RH[Cha][Cha]NL[Aib]TRQR[Cha]-NH2; N-terminus assumed; SMILES CN[C@@H](C)C(=O)N[C@@H](CO)C(=O)N1CCC[C@@H]1C(=O)N[C@@H](CCCNC(=N)N)C(=O)N[C@@H](Cc1c[nH]cn1)C(=O)N[C@@H](CC1CCCCC1)C(=O)N[C@@H](CC1CCCCC1)C(=O)N[C@@H](CC(N)=O)C(=O)N[C@@H](CC(C)C)C(=O)NC(C)(C)C(=O)N[C@H](C(=O)N[C@@H](CCCNC(=N)N)C(=O)N[C@@H](CCC(N)=O)C(=O)N[C@@H](CCCNC(=N)N)C(=O)N[C@@H](CC1CCCCC1)C(N)=O)[C@@H](C)O) [compound No. 123] | 0.72 | 0.6 | –

More lines, main results first:

Row | GBA EC50 Ratio (human Y2 receptor [1]) | RBA IC50 Ratio (human Y2 receptor [2]) | Substance | food intake suppression rate (%) (male C57EL/6J mice)
9 | 1.2 | 2.0 | [N(2-hydroxyethyl)Gly23, D-Pro24, Cha27,28,36, Aib31]-PYY(23-36) ([Gly(N-CH2CH2OH)][dP]RH[Cha][Cha]NL[Aib]TRQR[Cha]-NH2; N-terminus assumed; SMILES CC(C)C[C@H](NC(=O)[C@H](CC(N)=O)NC(=O)[C@H](CC1CCCCC1)NC(=O)[C@H](CC1CCCCC1)NC(=O)[C@H](Cc1c[nH]cn1)NC(=O)[C@H](CCCNC(=N)N)NC(=O)[C@H]1CCCN1C(=O)CNCCO)C(=O)NC(C)(C)C(=O)N[C@H](C(=O)N[C@@H](CCCNC(=N)N)C(=O)N[C@@H](CCC(N)=O)C(=O)N[C@@H](CCCNC(=N)N)C(=O)N[C@@H](CC1CCCCC1)C(N)=O)[C@@H](C)O) [compound No. 134] | –
10 | 2.4 | 5.8 | [N(iBu)Gly23, D-Pro24, Cha27,28,36, Aib31]-PYY(23-36) ([Nleu][dP]RH[Cha][Cha]NL[Aib]TRQR[Cha]-NH2; N-terminus assumed; SMILES CC(C)CNCC(=O)N1CCC[C@@H]1C(=O)N[C@@H](CCCNC(=N)N)C(=O)N[C@@H](Cc1c[nH]cn1)C(=O)N[C@@H](CC1CCCCC1)C(=O)N[C@@H](CC1CCCCC1)C(=O)N[C@@H](CC(N)=O)C(=O)N[C@@H](CC(C)C)C(=O)NC(C)(C)C(=O)N[C@H](C(=O)N[C@@H](CCCNC(=N)N)C(=O)N[C@@H](CCC(N)=O)C(=O)N[C@@H](CCCNC(=N)N)C(=O)N[C@@H](CC1CCCCC1)C(N)=O)[C@@H](C)O) [compound No. 133] | –
11 | 1.2 | 1.7 | [βAla23, D-Pro24, Cha27,28,36, Aib31]-PYY(23-36) ([βAla][dP]RH[Cha][Cha]NL[Aib]TRQR[Cha]-NH2; N-terminus assumed; SMILES CC(C)C[C@H](NC(=O)[C@H](CC(N)=O)NC(=O)[C@H](CC1CCCCC1)NC(=O)[C@H](CC1CCCCC1)NC(=O)[C@H](Cc1c[nH]cn1)NC(=O)[C@H](CCCNC(=N)N)NC(=O)[C@H]1CCCN1C(=O)CCN)C(=O)NC(C)(C)C(=O)N[C@H](C(=O)N[C@@H](CCCNC(=N)N)C(=O)N[C@@H](CCC(N)=O)C(=O)N[C@@H](CCCNC(=N)N)C(=O)N[C@@H](CC1CCCCC1)C(N)=O)[C@@H](C)O) [compound No. 116] | –
